Reference: US20180222987A1 (Sanofi, published 2018)
Each block holds one binder with its values, some of them ahead of it.

Key:
[1] = biological target: T1, human CD3ε/δ-Fc fusion heterodimer (hCD3ε/δ-hFc) (human, UniProt P04234 22-105); assay: SPR single point, hybridoma supernatant
T1 construct: also called CD3ed-Fc; human CD3ε/δ complex; not shown: hinge-CH2-CH3 of human IgG with tag
Method: Rats with positive sera were scarified and B cells were fused with mouse myeloma cells. The resulting hybridomas were screened on HEK293 cells transfected with human or cynomolgus CD3ε and CD3δ expression plasmids, on Jurkat E6.1 (CD3+) and Jurkat T3.5 (CD3-) by flow cytometry. Supernatant of Hybridoma clones was used to assess by surface plasmon resonance single point kinetic against human and Macaca fascicularis CD3ε/δ complex by fixing the analyte at 25 nM (data presented in table 3).

[2] = biological target: T2, human CD123 (IL3RA) Strep-II tagged Fc-fusion protein (human); assay: SPR Proteon XPR36, rat IgG captured, CD123-Fc analyte
T2 construct: also called human CD123-Fc
Method: Screening of anti-CD123 rat IgGs for binding affinities to human CD123 and cross-reactivities to cyno CD123 was performed with hybridoma supernatants using a Proteon XPR36 (Biorad) in a one-shot kinetics approach. A capture assay was established using a goat anti-rat IgG (112-005-071, Jackson Immuno Research). The capture antibody was coated on GLC chips (176-5011, Biorad) to approx. 8000 RU in the vertical direction using the amine coupling kit (176-2410, Biorad). […] Binding kinetics with human and cyno CD123-Fc fusion protein was measured at 100 μl/min in the horizontal direction with 120 sec. and 600 sec. for association and dissociation, respectively. The CD123-Fc proteins were used in twofold dilutions from 6 nM to 100 nM. PBSET buffer (176-2730, Biorad) was used as assay buffer. Regeneration was achieved by injection of 10 mM Glycine buffer pH 1.5 for 18 sec at 30 μl/min. Data processing and analysis was performed using ProteonManager software v3.0. Fitting of the sensorgrams was done with a 1:1 Langmuir model.

T1 sequence (chain, as listed by the source mutant, chain 1 of 2): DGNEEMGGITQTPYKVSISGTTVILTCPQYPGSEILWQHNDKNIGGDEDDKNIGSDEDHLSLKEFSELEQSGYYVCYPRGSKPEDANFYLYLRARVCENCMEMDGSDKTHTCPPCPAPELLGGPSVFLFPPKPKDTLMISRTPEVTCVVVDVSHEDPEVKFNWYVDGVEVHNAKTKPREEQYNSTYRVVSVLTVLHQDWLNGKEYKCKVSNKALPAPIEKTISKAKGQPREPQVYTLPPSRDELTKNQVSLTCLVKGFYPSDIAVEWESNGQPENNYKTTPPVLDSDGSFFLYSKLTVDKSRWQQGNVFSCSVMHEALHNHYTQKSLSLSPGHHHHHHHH
T1 sequence (P04234 22-105, stated change not applied, chain 2 of 2): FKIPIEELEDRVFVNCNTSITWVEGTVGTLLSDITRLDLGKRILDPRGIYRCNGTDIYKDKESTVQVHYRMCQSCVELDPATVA
T2 sequence (chain, as listed by the source limits assumed): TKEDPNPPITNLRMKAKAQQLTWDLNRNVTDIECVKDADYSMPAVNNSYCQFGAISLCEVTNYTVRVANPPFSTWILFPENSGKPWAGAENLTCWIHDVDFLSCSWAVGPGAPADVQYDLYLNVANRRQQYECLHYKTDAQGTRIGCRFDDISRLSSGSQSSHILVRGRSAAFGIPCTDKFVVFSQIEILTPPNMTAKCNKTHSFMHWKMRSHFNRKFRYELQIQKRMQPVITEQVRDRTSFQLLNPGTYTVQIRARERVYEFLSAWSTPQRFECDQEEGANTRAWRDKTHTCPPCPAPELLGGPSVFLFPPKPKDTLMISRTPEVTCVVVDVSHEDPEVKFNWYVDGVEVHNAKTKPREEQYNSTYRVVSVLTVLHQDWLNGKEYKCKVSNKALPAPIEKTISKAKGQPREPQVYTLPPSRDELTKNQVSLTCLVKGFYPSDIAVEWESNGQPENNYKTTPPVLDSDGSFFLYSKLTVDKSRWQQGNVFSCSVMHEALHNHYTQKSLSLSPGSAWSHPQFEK

RU at 25 nM [1]: 7 RU
B1: 11H3-E5 anti-CD3 antibody (antibody, V domains shown)
VH: EVQLVETGGSLVQPGKSLKLTCATSGFTFSNAWMHWVRQSPEKQLEWVAQIKAKSNNYATYYAESVKGRFTISRDDSKSSVYLQMNSLKEEDTAIYYCRGTYYAYKPFDYWGQGVMVTVSS
VL: DVVMTQTPVSLSVSLGGQVSISCRSSQSLVHDNGNTYLSWSLQKPGQSPQVLIYKVSNRFSGTSDRFTGSGSGTDFTLKISRVEPDDLGVYYCGQGTQYPFTFGSGTKLEIK
notes: rat mAb, hybridoma supernatant

koff [2]: ~5e-05 s⁻¹
B2: 3B10-E6 anti-CD123 antibody (antibody, V domains shown)
VH: QVQLQQSGPELRRPGSSVRLSCKASGYRIKDFLIHWIKNRPEHGLEWIGWIDPEDGETKYAQKFQTKATLTADTSSNTAYMQLSSLTSEDTATYFCARWGDVYYGLMRGHVMDAWGQGTSVTVSS
VL: DVLMTQTPVSLPVSLGGQVSISCRSSQSLVHSDGDTYLHWYLQKPGQSPQLLIYRVSNRFSGVPDRFSGSGSGTDFTLKISRVEPEDLGLYYCLQTTHFPPWTFGGGTKLEMK
notes: rat IgG, hybridoma supernatant; also called BFX - 3B10
